From publication PMC4242836 (The Journal of Cell Biology, 2014) come the findings set out here.

The experiment has as its target T1, Snu13p (S. cerevisiae, UniProt P39990 1-126).
T1 sequence: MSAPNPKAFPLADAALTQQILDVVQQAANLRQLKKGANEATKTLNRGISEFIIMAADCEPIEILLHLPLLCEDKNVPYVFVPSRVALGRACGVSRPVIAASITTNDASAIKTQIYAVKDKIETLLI
Description: crystal structure.

B1: Rsa1_(238–290) (domain or fragment)
chain: TDEDVKKWREERKKMWLLKISNNKQKHMQEMGIKEDELKSQPSIFKESRKEKQ
Regarding B1, the binding result is “binds”.
